{"source": "paper PMC8878198", "origin": "cited, not measured here", "target": "CXCL8 (Homo sapiens) (UniProt P10145)", "sequence (P10145 28-99)": "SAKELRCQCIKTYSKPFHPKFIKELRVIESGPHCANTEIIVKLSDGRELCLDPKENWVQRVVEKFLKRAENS", "data": [{"substance": "CXCR2 (from UniProt P25025)", "values": [{"measurement": "Kd", "value": 0.7, "unit": "nM"}]}]}
